{
  "source": "patent US20080194611A1",
  "about": "“Modulation of Cell Barrier Dysfunction” (priority 2005, published 2008)",
  "molecules": {"B1": {"name": "PA-I: purified lectin/adhesin protein of P. aeruginosa (protein, UniProt Q05097 2-122, looked up)", "PA-I galactophilic lectin": "AWKGEVLANNEAGQVTSIIYNPGDVITIVAAGWASYGPTQKWGPQGDREHPDQGLICHDAFCGALVMKIGNSGTIPVNTGLFRWVAPNNVQGAITLIYNDVPGTYGNNSGSFSVNIGKDQS"}},
  "key": {"[1]": {"test_system": "cultured epithelial cells (MDCK, T-84, Caco-2bbe)", "test": "Epithelial permeability / TEER after purified PA-I", "type": "cell-based", "conditions": "MDCK monolayers; purified protein"}, "[2]": {"test": "Cecal instillation of purified PA-I with cytotoxins in mice"}},
  "data": [
    {"molecule": "B1", "values": [
      {"measurement": "TEER of epithelial cells", "setting": "[1]", "result": "decreased the TEER of epithelial cells to the same degree as P. aeruginosa"},
      {"measurement": "mortality, compound alone", "setting": "[2]; cecal injection", "result": "had no effect"},
      {"measurement": "mortality, combination with exotoxin A or elastase", "setting": "[2]; cecal instillation, surgically stressed and sham-operated mice", "result": "induced significant mortality"}
    ]}
  ]
}
